The data set addresses Nhp2 (W);Cbf5;Nop10;Gar1 (Saccharomyces cerevisiae;Saccharomyces cerevisiae;Saccharomyces cerevisiae;Saccharomyces cerevisiae) (UniProt P33322+Q6Q547+P28007). The data set is described as follows: smFRET. The settings on record: substrate RNA binding to the reconstituted H5 RNP; substrate is an analogue RNA; sequence as assayed not given; smFRET with immobilized 3'-biotin RNA; smFRET buffer not in the material (RNP reconstitution for activity assays: 12.5 mM Tris/HCl pH 8.0, 250 mM NaCl, 30 °C).

“H5 U61-donor snoRNA with acceptor-labeled H5 substrate RNA” yielded a binding signal (% of RNPs substrate bound) of 37.

For the origin of these results see PMC8096250.
